Measured values as given in patent publication US20230124669A1 (ADAGENE, published 2023).

Legend:
[1] = target: T1, human CD3 (E and δ chain heterodimer) fused with human Fc fragment (human, UniProt P07766 23-126; P04234 22-105); assay: ELISA, plate coated with 2 µg/mL antigen-human Fc fusion, serially diluted IgG
T1 construct: ELISA coating antigen; the text prints 'E and 6 chain heterodimer', read as epsilon and delta
Method: 2 μg/mL of human HER2 or CD3 (E and 6 chain heterodimer) fused with human Fc fragment, were prepared and used to coat the ELISA plate at 2-8′C overnight. After washing and blocking, 50 μL serial diluted IgGs were added and incubated at 37′C for 1 hour. Plates were washed three times and then incubated with 50 μL/well TMB substrate at room temperature for about 20 minutes. Absorbance at 450 nm was measured after the reaction was stopped. The data was analyzed by GraphPad Prism 6 with nonlinear fitting.

[2] = target: T2, mouse PDL1 expressed on cells (mouse, UniProt Q9EP73 19-290); assay: told in words; cross-reactivity by flow cytometry on antigen-expressing cells (FIG. 13)
T2 construct: whole, on cells
T2 sequence (Q9EP73 19-290): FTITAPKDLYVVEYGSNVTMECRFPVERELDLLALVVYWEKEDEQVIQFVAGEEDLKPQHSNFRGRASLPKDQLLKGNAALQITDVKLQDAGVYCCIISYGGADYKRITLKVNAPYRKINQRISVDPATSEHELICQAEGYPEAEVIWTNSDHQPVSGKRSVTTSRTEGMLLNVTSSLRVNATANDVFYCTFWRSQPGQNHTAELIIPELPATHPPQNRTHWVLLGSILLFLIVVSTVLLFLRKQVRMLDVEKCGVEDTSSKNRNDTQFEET
Method: (§1) The affinity of antibodies was also assessed against human, monkey and mouse CD137 or PDL1 that were transiently expressed on the surface of yeast or HEK293F cells. Briefly, yeast or HEK293F cells were transfected with a plasmid expressing human, monkey or mouse CD137 or PDL1. After 48 hours, the transfected cells were harvested and then washed. Cells were then incubated with IgGs (each at 100 nM) at 4° C. in the shaking bed for 1 hour shaking at 300 rpm, protected from light. For simultaneously binding, cell were incubated with biotinylated human CD137 or PDL1 protein fused with human Fc fragment, and SA-PE (streptavidin, phycoerythrin conjugated). For cross-reactivity, cells were incubated with Alexa Fluor 647 conjugated mouse anti-human Fc antibodies. The mixtures were incubated at 4° C. in the shaking bed for 30 minutes shaking at 300 rpm, protected from light. The cells were washed once prior to analysis by flow cytometry (Beckman CytoFlex).

[3] = target: T3, Human PDL1 (SPR analyte) (human, UniProt Q9NZQ7 19-238, limits assumed); assay: SPR (Biacore T200), antibody captured by anti-human IgG on CM5 chip, antigen injected as analyte, 1:1 Langmuir fit
T3 construct: also called PDL1H
T3 sequence (Q9NZQ7 19-238 limits assumed): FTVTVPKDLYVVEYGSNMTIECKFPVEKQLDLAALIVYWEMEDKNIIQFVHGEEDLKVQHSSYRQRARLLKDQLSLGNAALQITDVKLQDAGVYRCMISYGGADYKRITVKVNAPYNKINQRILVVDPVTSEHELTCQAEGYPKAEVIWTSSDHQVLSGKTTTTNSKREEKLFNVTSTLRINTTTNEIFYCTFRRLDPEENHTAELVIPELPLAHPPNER
Method: (§2) Biacore T200 (GE Healthcare) was used as a high performance system for real-time biomolecular interaction analysis, using surface plasmon resonance technology (“SPR”). During the measurement, anti-human IgG monoclonal antibody from the Human Antibody Capture Kit provided by Biacore was immobilized on CM5 chips, and IgG sample was injected onto sensor chip. Analytes were injected onto IgG captured flow cell for binding kinetic analysis in HBS-EP buffer.

[4] = target: T4, Human CD137 (SPR analyte) (human, UniProt Q07011 24-186, limits assumed); assay: as above
T4 construct: also called CD137H
Method: as §2

[5] = target: T2, mouse PDL1 expressed on cells; assay: flow cytometry, antigen transiently expressed on yeast or HEK293F cells, IgG at 100 nM, Alexa Fluor 647 anti-human Fc detection (FIG. 13)
Method: as §1

[6] = target: T5, mouse CD137 expressed on cells (mouse, UniProt P20334 24-256); assay: as above
T5 construct: whole, on cells
T5 sequence (looked up): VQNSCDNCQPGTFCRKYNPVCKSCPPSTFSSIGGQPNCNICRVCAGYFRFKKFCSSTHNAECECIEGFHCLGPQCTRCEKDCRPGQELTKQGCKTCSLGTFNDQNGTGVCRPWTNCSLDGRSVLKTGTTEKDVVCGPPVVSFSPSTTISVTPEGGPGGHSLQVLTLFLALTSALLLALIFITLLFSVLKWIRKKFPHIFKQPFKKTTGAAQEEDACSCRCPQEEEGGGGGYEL
Method: as §1

[7] = target: HER2 on HER2-positive tumor cells (SKOV3) (UniProt P04626 23-1255); assay: cell-based or functional assay
[8] = target: T5, mouse CD137 expressed on cells; assay: told in words; cross-reactivity by flow cytometry on antigen-expressing cells (FIG. 13)
Method: as §1

T1 sequence (P07766 23-126, stated change not applied, chain 1 of 2): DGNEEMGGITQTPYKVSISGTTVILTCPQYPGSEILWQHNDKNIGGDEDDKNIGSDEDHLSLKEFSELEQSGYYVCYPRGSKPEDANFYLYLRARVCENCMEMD
T1 sequence (P04234 22-105, stated change not applied, chain 2 of 2): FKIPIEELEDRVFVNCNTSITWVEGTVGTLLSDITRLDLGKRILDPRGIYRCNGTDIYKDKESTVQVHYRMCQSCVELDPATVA

B1: TY24051 (bispecific antibody)
heavy: not shown
chain: not shown
light: QAVVTQEPSLTVSPGGTVTLTCGSSTGAVTTSNYANWVQQKPGQAPRGLIGGTNKRAPGVPARFSGSLLGGKAALTLSGAQPEDEAEYYCALWYSNLWVFGGGTKLTVLRGGGGSGGGGSGGGGSGGGGSEVQLVESGGGLVQPGGSLRLSCAASGFTFNTYAMNWVRQAPGKGLEWVGRIRSKYNNYATYYADSVKGRFTISRDDSKNTLYLQMNSLRAEDTAVYYCVRHGNFGNSYVSWFAYWGQGTLVTVSSEPKSSDKTHTCPPCPAPELLGGPSVFLFPPKPKDTLMISRTPEVTCVVVDVSHEDPEVKFNWYVDGVEVHNAKTKPREEQYASTYRVVSVLTVLHQDWLNGKEYKCKVSNKALPAPIEKTISKAKGQPREPQVYTDPPSRDELTKNQVSLTCLVDGFYPSDIAVEWESNGQPENCYKTTPPVLDSDGSFFLYSKLTVDKSRWQQGNVFSCSVMHEALHNHYTQDSLSLSPGK
notes: Anti-HER2 Fab arm and anti-CD3 scFv arm, IgG1 Fc with TYM13 mutations and N297A; also called HER2×CD3 bispecific T-cell-engaging antibody; parental bispecific Fab X scFv in IgG1
binding result [1]: binds

B2: anti-PDL1 Fv (antibody, V domains shown)
VH: EVQLVESGGGLVQPGGSLRLSCAASGYSISSGYYWGWIRQAPGKGLEWIGIIYPSGGGTNYAQKFQGRVTISRDNSKNTLYLQLNSLRAEDTAVYYCARGGGLGFDYWGQGTLVTVSS
VL: DIQLTQSPSSLSASVGDRVTITCRASQSIPSFLNWYQQKPGKAPKLLIYAASSLQSGVPSRFSGSGSGTDFTLTISSLQPEDFATYYCQHYISWPRQFTFGQGTKVEIKR
notes: Named only as the anti-PDL1 Fv used in the bispecific and parental antibodies; also called PDL1 VH / PDL1 VL
binding result [2]: binds

B3: TY22148 (bispecific antibody, human IgG1, kappa)
heavy: DIQLTQSPSSLSASVGDRVTITCRASQSIPSFLNWYQQKPGKAPKLLIYAASSLQSGVPSRFSGSGSGTDFTLTISSLQPEDFATYYCQHYISWPRQFTFGQGTKVEIKRTVAAPSVFIFPPSDEQLKSGTASVVCLLNNFYPREAKVQWKVDNALQSGNSQESVTEQDSKDSTYSLSSTLTLSKADYEKHKVYACEVTHQGLSSPVTKSFNRGEC
light: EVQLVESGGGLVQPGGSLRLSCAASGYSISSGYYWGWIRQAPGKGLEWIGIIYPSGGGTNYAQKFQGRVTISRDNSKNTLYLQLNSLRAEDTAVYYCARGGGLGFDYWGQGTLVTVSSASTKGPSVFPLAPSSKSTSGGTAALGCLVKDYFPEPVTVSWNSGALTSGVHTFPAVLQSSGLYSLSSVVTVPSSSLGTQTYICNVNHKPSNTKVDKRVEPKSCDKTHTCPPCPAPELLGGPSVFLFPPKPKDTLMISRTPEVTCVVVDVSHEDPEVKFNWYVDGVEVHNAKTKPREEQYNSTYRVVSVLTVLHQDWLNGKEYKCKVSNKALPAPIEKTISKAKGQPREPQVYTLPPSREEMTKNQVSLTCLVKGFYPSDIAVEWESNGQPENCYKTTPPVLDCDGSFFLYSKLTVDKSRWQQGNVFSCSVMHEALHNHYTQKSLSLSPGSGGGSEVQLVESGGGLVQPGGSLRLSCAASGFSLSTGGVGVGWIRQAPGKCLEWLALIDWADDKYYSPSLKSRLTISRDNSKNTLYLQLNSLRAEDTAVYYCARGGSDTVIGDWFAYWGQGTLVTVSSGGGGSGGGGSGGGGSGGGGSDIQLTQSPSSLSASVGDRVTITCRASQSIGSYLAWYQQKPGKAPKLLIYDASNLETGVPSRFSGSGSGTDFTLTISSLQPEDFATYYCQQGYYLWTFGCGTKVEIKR
notes: Morrison format: anti-PDL1 Fab, anti-CD137 scFv; IgG1 with N390C:S400'C; also called PDL1 × CD137 bispecific antibody, format TYF02
Kd [3]: 7.7 nM
Kd [4]: 6.7 nM
binding result [5]: binds
binding result [6]: binds

B4: TY24052 (bispecific antibody)
heavy: not shown
chain: not shown
light: EVGSYPYDDPDCPSHDSDCDNSGRSAGGGGTPLGLAGSGGSQAVVTQEPSLTVSPGGTVTLTCGSSTGAVTTSNYANWVQQKPGQAPRGLIGGTNKRAPGVPARFSGSLLGGKAALTLSGAQPEDEAEYYCALWYSNLWVFGGGTKLTVLRGGGGSGGGGSGGGGSGGGGSEVQLVESGGGLVQPGGSLRLSCAASGFTFNTYAMNWVRQAPGKGLEWVGRIRSKYNNYATYYADSVKGRFTISRDDSKNTLYLQMNSLRAEDTAVYYCVRHGNFGNSYVSWFAYWGQGTLVTVSSEPKSSDKTHTCPPCPAPELLGGPSVFLFPPKPKDTLMISRTPEVTCVVVDVSHEDPEVKFNWYVDGVEVHNAKTKPREEQYASTYRVVSVLTVLHQDWLNGKEYKCKVSNKALPAPIEKTISKAKGQPREPQVYTDPPSRDELTKNQVSLTCLVDGFYPSDIAVEWESNGQPENCYKTTPPVLDSDGSFFLYSKLTVDKSRWQQGNVFSCSVMHEALHNHYTQDSLSLSPGK
notes: Masked, cleavable version of TY24051, uncleaved; IgG1 Fc with TYM13 mutations and N297A; also called SAFEbody
EC50 of T-cell mediated killing of SKOV3 cells, fold increase compared with TY24051 [7]: ~800 fold
binding result [1]: binds

B5: anti-CD137 Fv (antibody, V domains shown)
VH: EVQLVESGGGLVQPGGSLRLSCAASGFSLSTGGVGVGWIRQAPGKGLEWLALIDWADDKYYSPSLKSRLTISRDNSKNTLYLQLNSLRAEDTAVYYCARGGSDTVIGDWFAYWGQGTLVTVSS
VL: DIQLTQSPSSLSASVGDRVTITCRASQSIGSYLAWYQQKPGKAPKLLIYDASNLETGVPSRFSGSGSGTDFTLTISSLQPEDFATYYCQQGYYLWTFGQGTKVEIKR
notes: Named only as the anti-CD137 Fv used in the bispecific and parental antibodies; also called CD137 VH / CD137 VL
binding result [8]: binds
